Target: T1, PUF4 RNA-binding domain (Saccharomyces cerevisiae, UniProt P25339 537-888)
T1 sequence: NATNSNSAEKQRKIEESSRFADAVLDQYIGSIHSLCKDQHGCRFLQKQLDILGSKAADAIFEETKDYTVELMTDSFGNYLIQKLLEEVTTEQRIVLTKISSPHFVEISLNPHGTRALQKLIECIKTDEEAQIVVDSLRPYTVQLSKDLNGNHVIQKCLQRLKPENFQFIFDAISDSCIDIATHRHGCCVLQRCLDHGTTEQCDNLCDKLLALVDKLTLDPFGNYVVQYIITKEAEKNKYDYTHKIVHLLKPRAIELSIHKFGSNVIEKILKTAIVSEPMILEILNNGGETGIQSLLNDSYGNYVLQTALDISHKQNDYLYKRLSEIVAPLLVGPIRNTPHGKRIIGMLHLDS
Assay: Mg; RNA-MaP; 20 mM Na-HEPES pH 7.4, 30 mM KOAc, 0.75 mM MgCl2, 0.1% Tween-20, 5% glycerol, 0.1 mg/mL BSA, 2 mM DTT; 25 C; 0.0125-409.6 nM protein
Conditions: tags: N-His6-TEV cleaved; C-SNAP kept, Cy3B-labelled; label: tethered on chip by stalled RNA polymerase

## UCUCUUCAACACUUAUUACAUCUCUU (ssRNA) [Id_ii_S1_P5E.4_K5.3_C5.2_[T-1A]_H5.3_A5.1_F5.1_T5.2_[T11C]]
  Kd: > 2300 nM

## UCUCUUCUACACUUAUUAUAUCUCUU (ssRNA) [Id_ii_S1_P5E.4_K5.3_C5.2_H5.3_A5.1_F5.1_T5.2]
  Kd: > 2300 nM

## UCUCUUCGACACUUAUUACUUCUCUU (ssRNA) [Id_ii_S1_P5E.4_K5.3_C5.2_[T-1G]_H5.3_A5.1_F5.1_T5.2_[T11C]_[A12T]]
  Kd: > 2300 nM

## UCUCUUUGUAUUAUAUUCUCUU (ssRNA) [Ib_S1_P5E.1_K5.1_C5.1_H5.1_A5.1_F5.1_[T9A]_[A10T]_T5.1]
  Kd: 1.1 nM

## UCUCUUCGACACUUAUUAACUCUCUU (ssRNA) [Id_ii_S1_P5E.4_K5.3_C5.2_[T-1G]_H5.3_A5.1_F5.1_T5.2_[T11A]_[A12C]]
  Kd: > 2300 nM

## UCUCUUCCACACUUAUUAGCUCUCUU (ssRNA) [Id_ii_S1_P5E.4_K5.3_C5.2_[T-1C]_H5.3_A5.1_F5.1_T5.2_[T11G]_[A12C]]
  Kd: > 2300 nM

## UCUCUUCAACACUUAUUAAUUCUCUU (ssRNA) [Id_ii_S1_P5E.4_K5.3_C5.2_[T-1A]_H5.3_A5.1_F5.1_T5.2_[T11A]_[A12T]]
  Kd: > 2300 nM

## UCUCUUCAACACUUAUUAGCUCUCUU (ssRNA) [Id_ii_S1_P5E.4_K5.3_C5.2_[T-1A]_H5.3_A5.1_F5.1_T5.2_[T11G]_[A12C]]
  Kd: > 2300 nM

## UCUCUUCAACACUUAUUACCUCUCUU (ssRNA) [Id_ii_S1_P5E.4_K5.3_C5.2_[T-1A]_H5.3_A5.1_F5.1_T5.2_[T11C]_[A12C]]
  Kd: > 2300 nM

## UCUCUUCCACACUUAUUAAAUCUCUU (ssRNA) [Id_ii_S1_P5E.4_K5.3_C5.2_[T-1C]_H5.3_A5.1_F5.1_T5.2_[T11A]]
  Kd: > 2300 nM

## UCUCUUUGUAUUAUAGUCUCUU (ssRNA) [Ic_S1_P5E.1_K5.1_C5.1_H5.1_A5.1_F5.1_[T9A]_[A10G]_T5.1]
  Kd: 0.924 nM

## UCUCUUCAACACUUAUUAUCUCUCUU (ssRNA) [Id_ii_S1_P5E.4_K5.3_C5.2_[T-1A]_H5.3_A5.1_F5.1_T5.2_[A12C]]
  Kd: > 2300 nM

## UCUCUUCCACACUUAUUAAUUCUCUU (ssRNA) [Id_ii_S1_P5E.4_K5.3_C5.2_[T-1C]_H5.3_A5.1_F5.1_T5.2_[T11A]_[A12T]]
  Kd: > 2300 nM

## UCUCUUCUACACUUAUUACCUCUCUU (ssRNA) [Id_ii_S1_P5E.4_K5.3_C5.2_H5.3_A5.1_F5.1_T5.2_[T11C]_[A12C]]
  Kd: > 2300 nM

## UCUCUUCAACACUUAUUAAAUCUCUU (ssRNA) [Id_ii_S1_P5E.4_K5.3_C5.2_[T-1A]_H5.3_A5.1_F5.1_T5.2_[T11A]]
  Kd: > 2300 nM

## UCUCUUUGUAUUAUCUUCUCUU (ssRNA) [Ic_S1_P5E.1_K5.1_C5.1_H5.1_A5.1_F5.1_[T9C]_[A10T]_T5.1]
  Kd: 18 nM

## UCUCUUCCACACUUAUUACCUCUCUU (ssRNA) [Id_ii_S1_P5E.4_K5.3_C5.2_[T-1C]_H5.3_A5.1_F5.1_T5.2_[T11C]_[A12C]]
  Kd: > 2300 nM

## UCUCUUCAACACUUAUUAGAUCUCUU (ssRNA) [Id_ii_S1_P5E.4_K5.3_C5.2_[T-1A]_H5.3_A5.1_F5.1_T5.2_[T11G]]
  Kd: > 2300 nM

## UCUCUUCCACACUUAUUAACUCUCUU (ssRNA) [Id_ii_S1_P5E.4_K5.3_C5.2_[T-1C]_H5.3_A5.1_F5.1_T5.2_[T11A]_[A12C]]
  Kd: > 2300 nM

## UCUCUUCCACACUUAUUAUAUCUCUU (ssRNA) [Id_ii_S1_P5E.4_K5.3_C5.2_[T-1C]_H5.3_A5.1_F5.1_T5.2]
  Kd: > 2300 nM

## UCUCUUCGUAUUAGUAUCUCUU (ssRNA) [Ib_S1_P5E.1_K5.1_C5.1_H5.1_[T1C]_A5.1_F5.1_[T8G]_T5.1]
  Kd: > 2300 nM

## UCUCUUCGACACUUAUUAAAUCUCUU (ssRNA) [Id_ii_S1_P5E.4_K5.3_C5.2_[T-1G]_H5.3_A5.1_F5.1_T5.2_[T11A]]
  Kd: > 2300 nM

## UCUCUUCCACACUUAUUACGUCUCUU (ssRNA) [Id_ii_S1_P5E.4_K5.3_C5.2_[T-1C]_H5.3_A5.1_F5.1_T5.2_[T11C]_[A12G]]
  Kd: > 2300 nM

## UCUCUUUGUAUUAUACUCUCUU (ssRNA) [Ic_S1_P5E.1_K5.1_C5.1_H5.1_A5.1_F5.1_[T9A]_[A10C]_T5.1]
  Kd: 2.48 nM

B1: Id_ii_S2_P3E.2_K3.1_C3.2_[C-2G]_[T-1G]_H3.1_A3.1_F3.1_T3.2_[T9A]_[A10G] (ssRNA)
RNA: UUUGAUUAAUAUGAUAUCGUUCUUUCUGGUGUAUAUAAGUUCUUUCUCGAUAUCAUAUUAAUCUUU
  Kd: 11.8 nM

B2: Id_ii_S2_P3E.2_K3.1_C3.2_[C-2T]_[T-1G]_H3.1_A3.1_F3.1_T3.2_[T9G]_[A10C] (ssRNA)
RNA: UUUGAUUAAUAUGAUAUCGUUCUUUCUUGUGUAUAUAGCUUCUUUCUCGAUAUCAUAUUAAUCUUU
  Kd: 6.53 nM

B3: Id_ii_S2_P3E.2_K3.1_C3.2_[C-2G]_[T-1C]_H3.1_A3.1_F3.1_T3.2_[T9C]_[A10G] (ssRNA)
RNA: UUUGAUUAAUAUGAUAUCGUUCUUUCUGCUGUAUAUACGUUCUUUCUCGAUAUCAUAUUAAUCUUU
  Kd: 20.2 nM

B4: Id_ii_S2_P3E.2_K3.1_C3.2_[C-2T]_[T-1C]_H3.1_A3.1_F3.1_T3.2_[T9C]_[A10T] (ssRNA)
RNA: UUUGAUUAAUAUGAUAUCGUUCUUUCUUCUGUAUAUACUUUCUUUCUCGAUAUCAUAUUAAUCUUU
  Kd: 4.12 nM

B5: Id_ii_S2_P3E.2_K3.1_C3.2_[C-2G]_[T-1G]_H3.1_A3.1_F3.1_T3.2_[T9A]_[A10T] (ssRNA)
RNA: UUUGAUUAAUAUGAUAUCGUUCUUUCUGGUGUAUAUAAUUUCUUUCUCGAUAUCAUAUUAAUCUUU
  Kd: 3.82 nM

B6: Id_ii_S2_P3E.2_K3.1_C3.2_[C-2T]_[T-1G]_H3.1_A3.1_F3.1_T3.2_[A10T] (ssRNA)
RNA: UUUGAUUAAUAUGAUAUCGUUCUUUCUUGUGUAUAUAUUUUCUUUCUCGAUAUCAUAUUAAUCUUU
  Kd: 1.33 nM

B7: Id_ii_S2_P3E.2_K3.1_C3.2_[C-2T]_[T-1C]_H3.1_A3.1_F3.1_T3.2_[T9C]_[A10G] (ssRNA)
RNA: UUUGAUUAAUAUGAUAUCGUUCUUUCUUCUGUAUAUACGUUCUUUCUCGAUAUCAUAUUAAUCUUU
  Kd: 7.76 nM

B8: Id_ii_S2_P3E.2_K3.1_C3.2_[C-2G]_[T-1G]_H3.1_A3.1_F3.1_T3.2_[A10G] (ssRNA)
RNA: UUUGAUUAAUAUGAUAUCGUUCUUUCUGGUGUAUAUAUGUUCUUUCUCGAUAUCAUAUUAAUCUUU
  Kd: 5.15 nM

B9: Id_ii_S2_P3E.2_K3.1_C3.2_[C-2T]_[T-1C]_H3.1_A3.1_F3.1_T3.2_[T9C]_[A10C] (ssRNA)
RNA: UUUGAUUAAUAUGAUAUCGUUCUUUCUUCUGUAUAUACCUUCUUUCUCGAUAUCAUAUUAAUCUUU
  Kd: 3.42 nM

B10: Id_ii_S2_P3E.2_K3.1_C3.2_[C-2G]_H3.1_A3.1_F3.1_T3.2_[T9A]_[A10G] (ssRNA)
RNA: UUUGAUUAAUAUGAUAUCGUUCUUUCUGUUGUAUAUAAGUUCUUUCUCGAUAUCAUAUUAAUCUUU
  Kd: 7.87 nM

B11: Id_ii_S2_P3E.2_K3.1_C3.2_[C-2T]_[T-1C]_H3.1_A3.1_F3.1_T3.2_[T9C] (ssRNA)
RNA: UUUGAUUAAUAUGAUAUCGUUCUUUCUUCUGUAUAUACAUUCUUUCUCGAUAUCAUAUUAAUCUUU
  Kd: 7.13 nM

B12: Id_ii_S2_P3E.2_K3.1_C3.2_[C-2G]_H3.1_A3.1_F3.1_T3.2_[T9C]_[A10C] (ssRNA)
RNA: UUUGAUUAAUAUGAUAUCGUUCUUUCUGUUGUAUAUACCUUCUUUCUCGAUAUCAUAUUAAUCUUU
  Kd: 18 nM

B13: Id_ii_S2_P3E.2_K3.1_C3.2_[C-2G]_H3.1_A3.1_F3.1_T3.2_[A10T] (ssRNA)
RNA: UUUGAUUAAUAUGAUAUCGUUCUUUCUGUUGUAUAUAUUUUCUUUCUCGAUAUCAUAUUAAUCUUU
  Kd: 2.02 nM

B14: Id_ii_S2_P3E.2_K3.1_C3.2_[C-2G]_[T-1C]_H3.1_A3.1_F3.1_T3.2_[A10T] (ssRNA)
RNA: UUUGAUUAAUAUGAUAUCGUUCUUUCUGCUGUAUAUAUUUUCUUUCUCGAUAUCAUAUUAAUCUUU
  Kd: 1.77 nM

B15: Id_ii_S2_P3E.2_K3.1_C3.2_[C-2T]_[T-1G]_H3.1_A3.1_F3.1_T3.2_[T9C]_[A10C] (ssRNA)
RNA: UUUGAUUAAUAUGAUAUCGUUCUUUCUUGUGUAUAUACCUUCUUUCUCGAUAUCAUAUUAAUCUUU
  Kd: 26.5 nM

B16: Id_ii_S2_P3E.2_K3.1_C3.2_[C-2T]_[T-1G]_H3.1_A3.1_F3.1_T3.2_[T9G]_[A10T] (ssRNA)
RNA: UUUGAUUAAUAUGAUAUCGUUCUUUCUUGUGUAUAUAGUUUCUUUCUCGAUAUCAUAUUAAUCUUU
  Kd: 3.09 nM

B17: Id_ii_S2_P3E.2_K3.1_C3.2_[C-2G]_H3.1_A3.1_F3.1_T3.2_[T9C]_[A10T] (ssRNA)
RNA: UUUGAUUAAUAUGAUAUCGUUCUUUCUGUUGUAUAUACUUUCUUUCUCGAUAUCAUAUUAAUCUUU
  Kd: 44.5 nM

B18: Id_ii_S2_P3E.2_K3.1_C3.2_[C-2T]_[T-1G]_H3.1_A3.1_F3.1_T3.2_[A10C] (ssRNA)
RNA: UUUGAUUAAUAUGAUAUCGUUCUUUCUUGUGUAUAUAUCUUCUUUCUCGAUAUCAUAUUAAUCUUU
  Kd: 3.49 nM

B19: Id_ii_S2_P3E.2_K3.1_C3.2_[C-2G]_H3.1_A3.1_F3.1_T3.2_[A10C] (ssRNA)
RNA: UUUGAUUAAUAUGAUAUCGUUCUUUCUGUUGUAUAUAUCUUCUUUCUCGAUAUCAUAUUAAUCUUU
  Kd: 8.98 nM

## UCUCUUCGACACUUAUUAUCUCUCUU (ssRNA) [Id_ii_S1_P5E.4_K5.3_C5.2_[T-1G]_H5.3_A5.1_F5.1_T5.2_[A12C]]
  Kd: > 2300 nM

## UCUCUUCAACACUUAUUAUGUCUCUU (ssRNA) [Id_ii_S1_P5E.4_K5.3_C5.2_[T-1A]_H5.3_A5.1_F5.1_T5.2_[A12G]]
  Kd: > 2300 nM

## UCUCUUCGACACUUAUUAAUUCUCUU (ssRNA) [Id_ii_S1_P5E.4_K5.3_C5.2_[T-1G]_H5.3_A5.1_F5.1_T5.2_[T11A]_[A12T]]
  Kd: > 2300 nM

## UCUCUUCGACACUUAUUAUUUCUCUU (ssRNA) [Id_ii_S1_P5E.4_K5.3_C5.2_[T-1G]_H5.3_A5.1_F5.1_T5.2_[A12T]]
  Kd: > 2300 nM

## UCUCUUCAACACUUAUUAACUCUCUU (ssRNA) [Id_ii_S1_P5E.4_K5.3_C5.2_[T-1A]_H5.3_A5.1_F5.1_T5.2_[T11A]_[A12C]]
  Kd: > 2300 nM

## UCUCUUCCACACUUAUUACAUCUCUU (ssRNA) [Id_ii_S1_P5E.4_K5.3_C5.2_[T-1C]_H5.3_A5.1_F5.1_T5.2_[T11C]]
  Kd: > 2300 nM

## UCUCUUCCACACUUAUUACUUCUCUU (ssRNA) [Id_ii_S1_P5E.4_K5.3_C5.2_[T-1C]_H5.3_A5.1_F5.1_T5.2_[T11C]_[A12T]]
  Kd: > 2300 nM
